Test results: patent publication US20190225691A1 (SHANGHAI HENLIUS BIOTECH, published 2019)

Experiments:
[1] = biological target: T1, human PD-L1 on cells (PHA-activated human T cells); PD-L1-transfected CHO-S cells; A375 melanoma cells; … (human, UniProt Q9NZQ7 19-290); assay: flow cytometry on PHA-activated human CD3+ T cells, FITC-labeled anti-human IgG Fcγ, MFI
T1 construct: whole, on cells; also called PD-L1 expressing T cells; PD-L1 expressing CHO-S cells
Protocol: Human T cells were isolated from PBMC using MagniSortTM Human T Cell Enrichment Kit (eBioscience). Isolated T cells were activated by 5 μg/mL phytohemagglutinin (PHA) for 3 days to stimulate the PD-L1 expression. Activated T cells were collected and incubated in FACS buffer (PBS with 2% FBS) with human Fc blocker (eBioscience) for 20 minutes at 4° C. Binding of anti-PD-L1 monoclonal antibody was assessed by incubating the activated T cells with the serial-diluted antibodies in FACS buffer. The cells were washed with flow buffer and the binding was detected with a FITC-labeled rabbit anti-human IgG FcγAb. Cells were also stained with mouse anti-human CD3 PE-Cy7 (eBioscience) for gating CD3-positive T cells. Flow cytometric analyses were performed using the Cytomics FC 500 (Beckman Coulter Inc.).

[2] = biological target: T2, human PD-L1 ECD-His (human, UniProt Q9NZQ7 19-238); assay: SPR, 25 C, antibody captured by anti-human IgG Fc, hPD-L1_ECD-His analyte, 1:1 fit
T2 construct: extracellular domain; Analyte in all SPR and BLI runs; also called hPD-L1_ECD-His; hPD-L1 ECD-His; not shown: His tag
T2 sequence (Q9NZQ7 19-238): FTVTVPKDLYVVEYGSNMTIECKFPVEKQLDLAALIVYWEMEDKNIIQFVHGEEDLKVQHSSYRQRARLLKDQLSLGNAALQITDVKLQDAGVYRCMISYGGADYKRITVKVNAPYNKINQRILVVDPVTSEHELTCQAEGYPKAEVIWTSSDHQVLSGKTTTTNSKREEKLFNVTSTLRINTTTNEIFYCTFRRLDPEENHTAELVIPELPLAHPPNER
Protocol: Experiments were carried out at 25° C., and measurements were made with serial dilutions of hPD-L1_ECD-His from 55.4 nM to 11.1 nM passing over the captured antibodies in HBS-P+ buffer supplemented with 0.1% (w/v) BSA with a flow rate of […]. All data were analyzed with the evaluation software and curves were fit with a 1:1 Langmuir binding model. Data are representative of two independent experiments performed in duplicate.

[3] = biological target: T1, human PD-L1 on cells (PHA-activated …); assay: flow cytometry blocking assay: PD-L1 expressing CHO-S cells incubated with antibody, then biotin-labeled PD-1-Fc and streptavidin-PE; MFI of bound PD-1
Protocol: PD-L1 expressing CHO-S cells were suspended in FACS buffer (PBS with 4% FBS). Various concentrations of tested antibodies were added to the cell suspension (3.5E5 cells/well) and incubated at 4° C. for 30 minutes. […] The cells were washed and then stained with streptavidin-PE at 4° C. for 30 minutes. Flow cytometric analyses were performed using the Cytomics FC 500 (Beckman Coulter Inc.).
Anti-PD-L1 reference antibody and Avastin were used as the positive and negative control, respectively.

[4] = biological target: T2, human PD-L1 ECD-His; assay: SPR, ratio of KD to ref-1
[5] = biological target: T2, human PD-L1 ECD-His; assay: SPR, hPD-L1-His, PL3 variants

T1 sequence (Q9NZQ7 19-290): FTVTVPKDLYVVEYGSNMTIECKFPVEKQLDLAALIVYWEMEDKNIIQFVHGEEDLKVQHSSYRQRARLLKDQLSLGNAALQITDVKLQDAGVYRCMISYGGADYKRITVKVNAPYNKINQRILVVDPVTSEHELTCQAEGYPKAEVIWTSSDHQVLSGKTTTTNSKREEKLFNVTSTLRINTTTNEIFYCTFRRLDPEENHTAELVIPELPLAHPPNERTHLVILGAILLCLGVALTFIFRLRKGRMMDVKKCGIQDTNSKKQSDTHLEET

| Binder | EC50 (read off the curve) [1] | Kd [2] | koff [2] | kon [2] | IC50 (read off the curve) [3] | Improvement over ref-1 [4] | Kd [5] | koff [5] | kon [5] |
| --- | --- | --- | --- | --- | --- | --- | --- | --- | --- |
| PL15 (full-length, N297A mutant human IgG1) (antibody, V domains shown) VH: QVQLVQSGAEVKKPGSSVKVSCKASGGTFSSYTISWVRQAPGQGLEWMGRIIPILGIANYAQKFQGRVTITADKSTSTAYMELSSLRSEDTAVYYCARSRDGYSFGAFDIWGQGTLVTVSS VL: QSVLTQPPSVSGAPGQRVTISCTGYSSNIGAGYDVHWYQHLPGTAPKLLIYGNSNRPSGVPDRFSGSKSGTSASLAITGLQAEDEADYYCQSYDNSLSVSVFGGGTKLTVLG | ~0.03 µg/mL | 15 nM | 0.00933 s⁻¹ | 645000 M⁻¹ s⁻¹ | ~0.06 µg/mL |  |  |  |  |
| PL6 (full-length, N297A mutant human IgG1) (antibody, V domains shown) VH: EVQLVQSGAEVKKPGSSVKVSCKASGGTFSSYTINWVRQAPGQGLEWVGKIIPILGIADYAQMFKGRVTITADKFTSTVYMELNSLRSEDTAVYYCARGGYVGYLNAFDIWGQGTMVTVSS VL: QSVVTQPPSVSGAPGQRVTISCTGSSSNIGAGYDVHWYQQLPGTAPKLLIYGNSNRPSGVPDRFSGSKSGTSASLAITGLQAEDEADYYCQSYDSSLSGGVFGGGTKLTVLG |  | 11.2 nM | 0.0122 s⁻¹ | 1.05e+06 M⁻¹ s⁻¹ | ~0.03 µg/mL |  |  |  |  |
| PL3#7 IgG1 (antibody, V domains shown, Human IgG1) VH: QVQLVQSGAEVKKPGSSVKVSCKASGGTFSSYPISWVRQAPGQGLEWIGRIIPILGIANYAQKFQGRVTITADKSTSTAYMELSSLRSEDTAVYYCARSRDGYAFGAFDIWGQGTLVTVSS VL: QSVVTQPPPVSGAPGQRVTISCTGSSSNIGAGYDVHWYQQLPGTAPKLLIYGNSNRPSGVPDRFSGSKSGTSASLAITGLQAEDEADYYCQTYDSSLSARVVFGGGTKLTVL |  |  |  |  |  | 1.38 fold | 0.457 nM | 0.000444 s⁻¹ | 997000 M⁻¹ s⁻¹ |
| PL3 IgG2 (antibody, V domains shown, Human IgG2) VH: QVQLVQSGAEVKKPGSSVKVSCKASGGTFSSYTISWVRQAPGQGLEWMGRIIPILGIANYAQKFQGRVTITADKSTSTAYMELSSLRSEDTAVYYCARSRDGYSFGAFDIWGQGTLVTVSS VL: QSVVTQPPPVSGAPGQRVTISCTGSSSNIGAGYDVHWYQQLPGTAPKLLIYGNSNRPSGVPDRFSGSKSGTSASLAITGLQAEDEADYYCQSYDSSLSAPVVFGGGTKLTVL |  |  |  |  |  | 0.1 fold | 6.64 nM | 0.00277 s⁻¹ | 417000 M⁻¹ s⁻¹ |
| PL3 IgG1 (antibody, V domains shown) VH: QVQLVQSGAEVKKPGSSVKVSCKASGGTFSSYTISWVRQAPGQGLEWMGRIIPILGIANYAQKFQGRVTITADKSTSTAYMELSSLRSEDTAVYYCARSRDGYSFGAFDIWGQGTLVTVSS VL: QSVVTQPPPVSGAPGQRVTISCTGSSSNIGAGYDVHWYQQLPGTAPKLLIYGNSNRPSGVPDRFSGSKSGTSASLAITGLQAEDEADYYCQSYDSSLSAPVVFGGGTKLTVL |  |  |  |  |  | 0.12 fold | 5.46 nM | 0.00291 s⁻¹ | 542000 M⁻¹ s⁻¹ |
| PL3#1 IgG2 (antibody, V domains shown, Human IgG2) VH: QVQLVQSGAEVKKPGSSVKVSCKASGGTFSSYRISWVRQAPGQGLEWMGRIIPILGIANYAQKFQGRVTITADKSTSTAYMELSSLRSEDTAVYYCARSRDGYSVGAFDSWGQGTLVTVSS VL: QSVVTQPPPVSGAPGQRVTISCTGSSSNIGAGYDVHWYQQLPGTAPKLLIYGNSRRPSGVPDRFSGSKSGTSASLAITGLQAEDEADYYCQTYDSSLSRPVVFGGGTKLTVL |  |  |  |  |  | 0.85 fold | 0.74 nM | 0.00067 s⁻¹ | 931000 M⁻¹ s⁻¹ |
| PL8 (full-length, N297A mutant human IgG1) (antibody, V domains shown) VH: EVQLVQSGAEVKKPGSSVKVSCKASGGTFSSYAISWVRQAPGQGLEWMGRIIPIFGTANYAQKFQGRVTITADESTSTAYMELSSLRSEDTAVYYCAREGVLDAFDIWGQGTMVTVSS VL: LSSELTQDPAVSVALGQTVRITCQGDSLRSYYVSWYQQKPGQAPVLVLYGKNNRPSGIPDRFSGSSSGSTASLTITGAQAEDEADYYCNSRDSTGNLLRVFGGGTKLTVLG |  | 8.85 nM | 0.00348 s⁻¹ | 382000 M⁻¹ s⁻¹ |  |  |  |  |  |

More lines, now with the values ahead:

| EC50 (read off the curve) [1] | Kd [2] | koff [2] | kon [2] | IC50 (read off the curve) [3] | Improvement over ref-1 [4] | Kd [5] | koff [5] | kon [5] | Binder |
| --- | --- | --- | --- | --- | --- | --- | --- | --- | --- |
|  |  |  |  |  | 1.81 fold | 0.349 nM | 0.000327 s⁻¹ | 995000 M⁻¹ s⁻¹ | PL3#7 IgG2 (antibody, V domains shown, Human IgG2) VH: QVQLVQSGAEVKKPGSSVKVSCKASGGTFSSYPISWVRQAPGQGLEWIGRIIPILGIANYAQKFQGRVTITADKSTSTAYMELSSLRSEDTAVYYCARSRDGYAFGAFDIWGQGTLVTVSS VL: QSVVTQPPPVSGAPGQRVTISCTGSSSNIGAGYDVHWYQQLPGTAPKLLIYGNSNRPSGVPDRFSGSKSGTSASLAITGLQAEDEADYYCQTYDSSLSARVVFGGGTKLTVL |
|  |  |  |  |  | 1.97 fold | 0.321 nM | 0.000362 s⁻¹ | 1.14e+06 M⁻¹ s⁻¹ | PL3#7 IgG4 (antibody, V domains shown, Human IgG4) VH: QVQLVQSGAEVKKPGSSVKVSCKASGGTFSSYPISWVRQAPGQGLEWIGRIIPILGIANYAQKFQGRVTITADKSTSTAYMELSSLRSEDTAVYYCARSRDGYAFGAFDIWGQGTLVTVSS VL: QSVVTQPPPVSGAPGQRVTISCTGSSSNIGAGYDVHWYQQLPGTAPKLLIYGNSNRPSGVPDRFSGSKSGTSASLAITGLQAEDEADYYCQTYDSSLSARVVFGGGTKLTVL |
|  |  |  |  |  | 1.73 fold | 0.366 nM | 0.000395 s⁻¹ | 1.1e+06 M⁻¹ s⁻¹ | PL3#1 mtIgG1 (N297A) (antibody, V domains shown, N297A mutant human IgG1) VH: QVQLVQSGAEVKKPGSSVKVSCKASGGTFSSYRISWVRQAPGQGLEWMGRIIPILGIANYAQKFQGRVTITADKSTSTAYMELSSLRSEDTAVYYCARSRDGYSVGAFDSWGQGTLVTVSS VL: QSVVTQPPPVSGAPGQRVTISCTGSSSNIGAGYDVHWYQQLPGTAPKLLIYGNSRRPSGVPDRFSGSKSGTSASLAITGLQAEDEADYYCQTYDSSLSRPVVFGGGTKLTVL |
